The values that follow come from patent publication US20250059294A1 (PURINOMIA BIOTECH, published 2025).

Where “and” joins values, the source holds several entries; their conditions need not be identical. Equal entries are not always repeated.

By Kd is commonly meant the constant that tells how readily two partners part at equilibrium.

For assay [1], the target named is T1, human CD39 (ectonucleoside triphosphate diphosphohydrolase-1) (human, UniProt P49961 1-510).
T1 sequence (looked up): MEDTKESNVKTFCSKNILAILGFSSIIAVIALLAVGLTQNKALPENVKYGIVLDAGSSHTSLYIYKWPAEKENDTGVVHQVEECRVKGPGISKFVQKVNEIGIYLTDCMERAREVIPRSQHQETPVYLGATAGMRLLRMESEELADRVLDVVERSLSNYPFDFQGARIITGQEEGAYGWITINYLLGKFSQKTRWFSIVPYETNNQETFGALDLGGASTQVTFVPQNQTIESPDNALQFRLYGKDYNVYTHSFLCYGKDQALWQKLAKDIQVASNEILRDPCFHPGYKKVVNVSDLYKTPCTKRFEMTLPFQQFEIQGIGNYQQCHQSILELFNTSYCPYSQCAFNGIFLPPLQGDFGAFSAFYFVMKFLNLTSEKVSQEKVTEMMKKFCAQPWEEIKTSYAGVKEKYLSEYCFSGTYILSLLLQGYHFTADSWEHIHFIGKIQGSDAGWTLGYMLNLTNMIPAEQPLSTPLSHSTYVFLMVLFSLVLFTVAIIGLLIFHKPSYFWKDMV
Briefly: cell-based or functional assay.

Assay [2] addresses T2, human CD39 (ectonucleoside triphosphate diphosphohydrolase-1) (human, UniProt P49961 1-510).
T2 chain: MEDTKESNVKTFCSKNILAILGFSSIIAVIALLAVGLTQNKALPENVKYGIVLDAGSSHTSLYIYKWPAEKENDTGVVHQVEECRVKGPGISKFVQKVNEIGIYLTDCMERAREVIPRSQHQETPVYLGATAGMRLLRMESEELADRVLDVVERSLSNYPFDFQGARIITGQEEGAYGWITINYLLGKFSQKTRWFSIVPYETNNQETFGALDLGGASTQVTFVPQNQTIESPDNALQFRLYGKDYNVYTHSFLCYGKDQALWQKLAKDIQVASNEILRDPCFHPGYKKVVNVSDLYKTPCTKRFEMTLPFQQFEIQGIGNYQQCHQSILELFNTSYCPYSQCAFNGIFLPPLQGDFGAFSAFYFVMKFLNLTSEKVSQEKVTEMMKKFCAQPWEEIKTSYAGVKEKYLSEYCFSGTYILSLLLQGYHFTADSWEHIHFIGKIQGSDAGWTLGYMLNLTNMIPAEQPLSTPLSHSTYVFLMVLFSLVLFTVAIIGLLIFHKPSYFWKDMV
The assay is described as follows: flow cytometry; HCC1739BL cells. (Flow cytometry measures light scatter and fluorescence of single cells or particles in a stream.)

The target in assay [3] is T1, human CD39 (ectonucleoside triphosphate …). Briefly: flow cytometry, serial dilution on HCC1739BL cells, 30 min at 4 °C. On the procedure:
FIG. 1. Affinity of Ig39-21 measured by flow cytometry using human CD39hi human B lymphoblastoid (HCC1739BL) cells. Our fully human anti-CD39 antibody clone Ig39-21 produced by transient transfection was serially diluted as indicated and incubated with HCC1739BL cells for 30 minutes at 4° C., followed by flow cytometric analysis.

The target is the same in assay [4]. The assay is described as follows: flow cytometry, serial dilution on CHO-hCD39 cells, anti-human IgG Fc AF488 secondary. On the procedure:
FIG. 10. […] Ig39-21 WT, Ig39-21 AF or NP501-BK (an optimized version of Ig39-21 by production using stably transfected cells) were serially diluted as indicated and incubated with CHO-hCD39 cells for 30 minutes at 4° C. Cells were then stained with secondary antibody (anti-human IgG (Fc specific), Alexa Fluor® 488) for 30 minutes at 4° C. and analyzed by flow cytometry. Human IgG1 isotype control antibody (KLH-hIgG1) was used in parallel.

For assay [5] the target is unchanged. The assay is described as follows: flow cytometry, serial dilution on HCC1739BL cells, anti-human IgG Fc AF488 secondary. How it is done: FIG. 11. […] Ig39-21 WT, Ig39-21 AF or NP501-BK were serially diluted as indicated and incubated with HCC1739BL cells for 30 minutes at 4° C. Afterwards, cells were stained with secondary antibody (anti-human IgG (Fc specific), Alexa Fluor® 488) for 30 minutes at 4° C. and analyzed by flow cytometry. Human IgG1 isotype control antibody (KLH-hIgG1) was used in parallel.

B1: Human/Rabbit chimeric clone 9B6 (antibody, human IgG1, V domains shown)
VH: QSVKEAGGRLVTPGGSLTLTCTVSGFSLSAYGISWVRQAPGKGLEWIGIIYSSGRTYYANWAKGRFTISKTSSTTVDLKMTSLTTEDTAAYFCARSRAGISSGDGFDSWGPGTLVTVSS
VL: ALVMTQTPSSVSAAVGGTVTINCQASQNIYSNLAWYQQKPGQRPQLLIYRASTLASGVPSRFKGSASGTEYTLTISGVQCDDAATYYCQQGFDSSNIDNTFGGGTEVVVT
Regarding B1, the “ADCC Luc-reporter assay, HCC1739BL target cells, EC50” value in assay [1] stood at 22 ng/mL.

B2: Human/Rabbit chimeric clone 9C10 (antibody, V domains shown)
VH: QSVEESGGRLVTPGTPLTLTCTVSGFSLSSYAMSWVRQAPGKGLEYIGIISSSGSTYYASWAKGRFTISKTSTTVDLKISSPTTEDTATYFCARDRVIYSIGPYYFNLWGPGTLVTVSS
VL: AYDMTQTPSSVSATVGGTVTINCQASEIIYSNLAWYQQKPGQPPKLLIYGASTLASGVPSRFKGSGSGTEYTLTISDLQCDDAATYYCQQSFSSNNVGNIFGGGTEVVVK
B2: the dissociation constant (Kd) in assay [2] worked out at 2.95 nM. This counts as single-digit nanomolar.

B3: Ig39-21 WT (antibody, human IgG1, kappa, V domains shown)
VH: EVQLVESGGGVVRPGGSLRLSCAASGFTFSSYAMHWVRQAPGKGLEWVAVISYDVSNKYYADSVKGRFTISRDNSKNTLYLQMNSLRAEDTAVYYCARSYYYYYGMDVWGQGTTVTVSS
VL: DVVMTQSPSSLSASVGDRVTITCRASQSISRYLAWYQQKPGQAPRLLIYDASNRATGIPVRFSGSGSGTDFTLTISRLEPEDFAVYYCQQFGRSPRTFGQGTRLEIKR
notes: also called fully human anti-CD39 antibody clone Ig39-21
B3: in assay [1], the “ADCC Luc-reporter assay (Jurkat hCD16a-158V effector cells), HCC1739BL target cells, EC50” value turned out to be 0.014 µg/mL; the “ADCC Luc-reporter assay, HCC1739BL target cells, EC50” value was 14 ng/mL and 20 ng/mL; the “CDC assay (10% Normal Human Serum), Raji-hCD39hi target cells, EC50” value (“CDC assay (10% Normal Human Serum)” below) came to 0.38 µg/mL. The molecule further returned a Kd in assay [3] of 0.412 nM. The Kd in assay [4] amounted to 0.52 nM. In assay [5], the Kd came to 0.29 nM.

B4: NP501-BK (antibody, V domains shown)
VH: EVQLVESGGGVVRPGGSLRLSCAASGFTFSSYAMHWVRQAPGKGLEWVAVISYDVSNKYYADSVKGRFTISRDNSKNTLYLQMNSLRAEDTAVYYCARSYYYYYGMDVWGQGTTVTVSS
VL: DVVMTQSPSSLSASVGDRVTITCRASQSISRYLAWYQQKPGQAPRLLIYDASNRATGIPVRFSGSGSGTDFTLTISRLEPEDFAVYYCQQFGRSPRTFGQGTRLEIKR
modifications: decreased fucosylation by optimized production process
notes: 'An optimized version of Ig39-21 by production using stably transfected cells' (CHO); also called Optimized Ig39-21
On to B4, for which, in assay [1], the “ADCC Luc-reporter assay, HCC1739BL target cells, EC50” value stood at 1.7 ng/mL and the “CDC assay (10% Normal Human Serum)” value worked out at 0.31 µg/mL. In assay [4], this molecule yielded a Kd of 0.48 nM. Besides, the affinity in assay [5], expressed as Kd, was 0.16 nM.

B5: Ig39-21 AF (antibody, human IgG1, kappa, V domains shown)
VH: EVQLVESGGGVVRPGGSLRLSCAASGFTFSSYAMHWVRQAPGKGLEWVAVISYDVSNKYYADSVKGRFTISRDNSKNTLYLQMNSLRAEDTAVYYCARSYYYYYGMDVWGQGTTVTVSS
VL: DVVMTQSPSSLSASVGDRVTITCRASQSISRYLAWYQQKPGQAPRLLIYDASNRATGIPVRFSGSGSGTDFTLTISRLEPEDFAVYYCQQFGRSPRTFGQGTRLEIKR
modifications: afucosylated glycan (produced in presence of fucosylation inhibitor 2-Deoxy-2-fluoro-L-fucose)
notes: also called afucosylated Ig39-21
For B5, in assay [1], the “ADCC Luc-reporter assay, HCC1739BL target cells, EC50” value is 0.86 ng/mL and 0.8 ng/mL; the “CDC assay (10% Normal Human Serum)” value is 0.25 µg/mL. The molecule also showed a Kd in assay [4] of 0.51 nM. The molecule further yielded a Kd in assay [5] of 0.35 nM.

B6: Human/Rabbit chimeric clone 8D8 (antibody, V domains shown)
VH: QSVEESGGRLVTPGTPLTLTCTVSGFSLSSYAISWVRQAPGKGLEYIAIINSYGTTYYASWAKGRVTISKTSSTVDLKISSPTTEDTATYFCARGDSYGSGVGLGLWGPGTLVTVSS
VL: AYDMTQTPASVEVAVGGTVTIKCQASQNIYSNLAWYQQKPGQRPKLLIYRASSLASGVPSRFSGSGSGTEFTLTISGVQCDDAATYYCQQGFSSNNVDNTFGGGTEVVVK
For the molecule B6, binding in assay [2] was put at a Kd of 1.1 nM.

B7: Human/Rabbit chimeric clone 8C11 (antibody, V domains shown)
VH: QSVEESGGRLVTPGTHLTLTCTVSGFSLSKSIISWVRQAPGKGLEYIGIIGSSGSTYYANWAKGRFTISKTSSTTVDLRMTSLTPEDTATYFCARGLLYSGNKSWGPGTLVTVSS
VL: AIDMTQTPSSVSAAVGGTVTINCQSSQSVLLNNQLSWFQQKPGQPPKLLIYDASTLESGVPSRFTGSGSGTQFTLTISDLECDDAATYYCLGGYSGNLYAFGGGTEVLVK
For B7, the Kd in assay [2] worked out at 1.68 nM.
